Assay: soluble on expression in E. coli; label from the status in PepcDB or PDB records

Soluble on expression in E. coli, soluble:
MGHHHHHHSHMPFTPPVVKRLLGWKKSAGGSGGAGGGEQNGQEEKWCEKAVKSLVKKLKKTGRLDELEKAITTQNCNTKCVTIPSTCSEIWGLSTPNTIDQWDTTGLYSFSEQTRSLDGRLQVSHRKGLPHVIYCRLWRWPDLHSHHELKAIENCEYAFNLKKDEVCVNPYHYQRVETP, GSYHADPSLVSFLTGLGCPNCIEYFTSQGLQSIYHLQNLTIEDLGALKIPEQYRMTIWRGLQDLKQGHDYSTAQQLLRSS, MAVKRPVRVLVNMDGVLADFESGLLQGFRRRFPEEPHVPLEQRRGFLANEQYGALRPDLAEKVASVYESPGFFLNLEPIPGALDALREMNDMKDTEVFICTTPLLKYDHCVGEKYRWVEQNLGPEFVERIILTRDKTVVMGDLLIDDKDNIQGLEETPSWEHILFTCCHNQHLALPPTRRRLLSWSDNWRGIIESKRASL, SERCDDWGLDTMRQIQVFEDEPARIKCPLFEHFLKFNYSTAHSAGLTLIWYWTRQDRDLEEPINFRLPENRISKEKDVLWFRPTLLNDTGNYTCMLRNTTYCSKVAFPLEVVQKDSCFNSPMKLPVHKLYIEYGIQRITCPNVDGYFPSSVKPTITWYMGCYKIQNFNNVIPEGMNLSFLIALISNNGNYTCVVTYPENGRTFHLTRTLTVKVVGSPKNAVPPVIHSPNDHVVYEKEPGEELLIPCTVYFSFLMDSRNEVWWTIDGKKPDDITIDVTINESISHSRTEDETRTQILSIKKVTSEDLKRSYVCHARSAKGEVAKAAKVKQKGNRCGQ, VIDSMTSTDLLPEEPKWVPLSSESIQQYVDEGKVVFVDVTADWCVTCKANKIGVLLQEPVYSELNSANVVPMQGDWTVPSEKITSYLQEHGRFGVPFNVVYGPSAPNGIELPVILNEKVVMDAIKKAGNK, MSLDFRDYMVKQVAARSGYQLQLDGPLRWHVWPQLSILSGRMSLTAQGASQPLVRADNMRLDVALLPLLSHQLSVKQVMLKGAVIQLTPQTEAVRSEDAPVAPRDNTLPDLSDDRGWSFDISSLKVADSVLVFQHEDDEQVTIRNIRLQMEQDPQHRGSFEFSGRVNRDQRDLTISLNGTVDASDYPHDLTAAIEQINWQLQGADLPKQGIQGQGSFQAQWQESHKRLSFNQISLTANDSTLSGQAQVTLTEKPEWQLRLQFPQLNLDNLIPLNETANGENGAAQQGQSQSTLPRPVISSRIDEPAYQGLQGFTADILLQASNVRWRGMNFTDVATQMTNKSGLLEITQLQGKLNGGQVSLPGTLDATSINPRINFQPRLENVEIGTILKAFNYPISLTGKMSLAGDFSGADIDADAFRHNWQGQAHVEMTDTRMEGMNFQQMIQQAVERNGGDVKAAENFDNVTRLDRFTTDLTLKDGVVTLNDMQGQSPVLALTGEGMLNLADQTCDTQFDIRVVGGWNGESKLIDFLKETPVPLRVYGNWQQLNYSLQVDQLLRKHLQDEAKRRLNDWAERNKDSRNGKDVKKLLEKMEGHHHHHH, MSLTDPAPEPEPPVEGQWTALTASPDTWDETKRADISYQLLLYSFADSDGDGYGDLNGVTQKLDYLNQLGVKALWLSPIHPCMSYHGYDVTDYTKVNPQLGTESDFDRLVTEAHNRGIKIYLDYVMNHTGTAHPWFTEASSSSESPYRNYYSFSEDPKTDIAAGKIAMITQEGAAGYNAAEWFQVSDETAAVKGLLKFTLDWSNAPSPILVVSTGTKADEDNPDTGTDNAKYLYYGEDICKKFYDKGNNIYELTVDFESTWGLLIRTSNASFWPSGTKYGASSSSEKLALNKDFKLTNAGNPANIMFDSQQITYFHSHFCTDWFADLNYGPVDQAGESPAYQAIADAAKGWIARGVDGLRLDAVKHIYHSETSEENPRFLKMFYEDMNAYYKQKGHTDDFYMIGEVLSEYDKVAPYYKGLPALFEFSFWYRLEWGINNSTGCYFAKDILSYQQKYANYRSDYIEATKLSNHDEDRTSSKLGKSADKCKLAAAVLLTSAGHPYIYYGEELGLYGTKDNGDEYVRSPMLWGDSYTTNYTDKTDATVSKNVKTVADQQADTHSLLNIYFSLTRLRNTYPALAEGNMTKHSVYNESQEKDYKPIAAWYMTKDNEKLLVIHNFGGTAMQLPLTDKIEKVLFVNGETQQNTDSDSYTLKLGGYASVVFKLGNEGHHHHHH, MGSSHHHHHHSSGLVPRGGSHMSAASSIFDFEVLDADHKPYNLVQHKGSPLLIYNVASKCGYTKGGYETATTLYNKYKSQGFTVLAFPCNQFGGQEPGNEEEIKEFVCTKFKAEFPIMAKINVNGENAHPLYEYMKKTKPGILKTKAIKWNFTSFLIDRDGVPVERFSPGASVKDIEKKLIPLLESTQSA, MSLALEVNMLTGGPTGTYIQIGRDIAKAASACGIEMTVHESAGSLENFLGVRQRPRTQFGIVQSDVLEYLKTFAADDPEVSRAIFGVRIAFPLYDEEVHLLARREIGSLKDLDGKRVSIGVENSGTFLTASLVLDLAEVAPGERRMMNQDDSLKALLAGDIDAFFYVAGAPAKIFASPEIDGERFHLVPVAEEVLRQVYKPTQIPAGSYPFQTGPVDAIAVKAVLMTYGYDPKRNAYHRESCKAVSDIAHVVSTHFPELQQSGHPKWKQVNLTDLPAGWDIGECVNAGLEPGYRLPCDPPEPAVAAPADASAESEANRAYRRQICAVVGEGHHHHHH, MHHHHHHSSGVDLGTENLYFQSMGAASLDVIQEVEYVKEEAKMVYLLECLQKTPPPVLIFAEKKADVDAIHEYLLLKGVEAVAIHGGKDQEERTKAIEAFREGKKDVLVATDVASKGLDFPAIQHVINYDMPEEIENYVHRIGRTGCSGNTGIATTFINKACDESVLMDLKALLLEAKQKVPPVLQVLHCG, MNKLYIGNLSENAAPSDLESIFKDAKIPVSGPFLVKTGYAFVDCPDESWALKAIEALSGKIELHGKPIEVEHSVPKRQRIRKLQIRNIPPHLQWEVLDSLLVQYGVVESCEQVNTDSETAVVNVTYSSKDQARQALDKLNGFQLENFTLKVAYIPDEMAAQQNPLQQPRGRRGLGQRGSSRQGSPGSVSKQKPCDLPLRLLVPTQFVGAIIGKEGATIRNITKQTQSKIDVHRKENAGAAEKSITILSTPEGTSAACKSILEIMHKEAQDIKFTEEIPLKILAHNNFVGRLIGKEGRNLKKIEQDTDTKITISPLQELTLYNPERTITVKGNVETCAKAEEEIMKKIRESYENDIASMNLQAHLIPGLNLNALGLFPPTSGMPPPTSGPPSAMTPPYPQFEQSETETVHLFIPALSVGAIIGKQGQHIKQLSRFAGASIKIAPAEAPDAKVRMVIITGPPEAQFKAQGRIYGKIKEENFVSPKEEVKLEAHIRVPSFAAGRVIGKGGKTVNELQNLSSAEVVVPRDQTPDENDQVVVKITGHFYACQVAQRKIQEILTQVKQHQQQKALQSGPPQSRRK, ILKELENLSPEEAAHQKAVVETLLQEDPWRVAKMVKSYLQQHNIPQREVVDTTGLNQSHLSQHLNKGTPMKTQKRAALYTWYVRKQREVAQQFTHAGQGGLIEEPTGDELPTKKGRRNRFKWGPASQQILFQAYERQKNPSKEERETLVEECNRAECIQRGVSPSQAQGLGSNLVTEVRVYNWFANRRKEEAFR

Soluble on expression in E. coli, not soluble:
MFSPVKSTKVYEQIIEQFKIMIANGTLKKGDKLPSERELVSQLGVSRASIREALSALQMIGFVEARHGEGNFIRENFEESLIDPFLLIFMLNGSNKEQILELRRIIEVETAALAAKKITDEEVKELEVCLENLTEAENETLKGKYDKKFHYNIAKASKNILIVNMLNAVSSLMDSFISEARGRILMVEDNKNVLMKQHRSMLEALKNHDSKAASNAMSEHLDLIYEYIIKK, MFNNNDFKDYRKLLGFGSQNAFKEFLGAKDIQPCVDFNDLNALKKRLIEIFSAINSIYCFKYNEYELECFFKNSIERVFSKIVDTHIIYKLNNQGRRPEEVCFSWMRGFLVAEFFKDFIACLFSAQKETIKFFGGDNFENIESFKRSPKADFLLDNHLLLEVQSDFQGINDIKEHKVLEAKRRLITDKVPTIVVHFDLFNGQVACVEISKIKDNDLNWITRQQMEGQSVFNISQNFFDYKITEIPNKPLS, MENNPFQRTEKIDISWCPGCGNFAIKASLSNALSKLNLKPQNVAIISGIGQAGKMPHYMFVNGFHTLHGRAIPAATAVKATNPELTVIAEGGDGDMYAEGGNHLIHAIRRNPNITVLIHNNQIYGLTKGQASPTTLVSTKTPTQPWGVFEEPLNPIALAISLNASFVARTFSGNLEKTEEIIIKAINHKGLSIVDIFHPCPSFNKVNTLQWYNENTYFLEDHDVTDRKKAFEKALQTEKYPLGIFYTCEKPVFEEVVPPYISEKTPIWKREPDLEKIEEIINSKRT, MDLIHEKVFVNRYHYDVRNHEWEKENGVPKTNVEVTFQLHHKDKEANNTSVVAVLQFMIVRDEFVISGIVSQMNHIQNRIVNNPKDFSQEEAEYLAAPLLDTLQRLTYEVTEIALDRPGINLEF, MRKSLTDIYEARVDAEELRADPAQHAVLEDLEGIRQWLEAHPERKRGLFGLFAAKEEPPKGLYLWGGVGRGKSMIMDLFTEAVEIPMKRRVHFHAFMQEVQQGMHEARKKGVEDALQPVADSVAGQVRLLAFDEMQITDITDAMVVGRLFQKLFEQGVVIVTTSNRPPEGLYENGLNREVFLPFIDLLRERMTVIELESPTDYRQHRLQGAQVFFHPARKAEQAIARIWSDLTGGDRGHPMRLPVNGRTVEIPRFANGVGRATFWGLCARPLGPADFLAIAEACRVLILEDIPRLSAENYNEAKRFVTLIDALYEARVRLIASAADEPERLYIEGEGSFEFERTASRLREMQSADWANLEHHHHHH, MNILRNIILFGWMAIACTAFAQDRNADKVERPNTKKINFGIKAGFNSSMFMVSELKIKDVTIDEVQNNYKIGYFGAIFMRFNIKKHFIQPEASYNVSKGEITFDKLGSQHPAIEPDYASVQSVLHSIDFPILYGYNVVKKGPYGMSIFAGPKLRYLWGKQNEITFTNFDQKGIHEKLYPLNVSVVIGVGVNISRIFFDFRYEQGIGNISKSIVYDNINSDGSTGVSPIIFRRRDSALSFSFGFIL, MGSDKIHHHHHHMQDDRLFPYGHARGAGWREALSSALEMAGPRVRGGTLGFLYVTDSFESDLPDILSAVREQTGVPHWTGCVGAGICATAQEYLDEPALAFMVTDFPETEFRLFAGMGPYRTGKSWPTGPGRPPYFAIVHGDSQTPDLPDLVRDFAGQMGSGFITGGICSSRTDGAQLVDEVVHGGLSGVTFSENIAVATRLTQGCSPIGPIHHINEAHNNVISRLDDRPALDVFNDETCDILSRDLQRAAGFIFVAMPVKNDDRGDYMVRTLVGIDIERKLLAIGEYAEAGQSLMFCKRDSGTAGEDLERMLSDISRLADGRKIRGGLYFTCVWRGQNLFGPDSAELRMIRDGLGDFPLVGFFANAEISHDKIYGYTGVLTLFLDAPTS, MMLITDTGVPERYIDTDEWGGEVMLRLDDGWCAALDRNTMMCTIYEKRPLICREFEAGAEDCLTERKGIATAYLLEHHHHHH, MGSDKIHHHHHHMTTYRTVSIDGLDIFYREAGSRNNPTILLLHGFPTSSHMFRNLIPALADKFHLVAPDYPGYGNSSMPTVNEFDYTFDNLAEIVEKFIAAIALKKYSLYVMDYGAPIGYRIAAKYPERVQSLIVQNGNAYEEGLREFWEPIKAYWQERSPENAEKLKYLVTLEATKWQYTNGVRNLEAISPDTWTMDQHFLDRPGNDEIQLALLYSYGTNPLLYPQWQEYFRNYQPPTLIVWGKNDYIFPADGAYPYQRDLKDVEFHLLDTGHFALEEDGDAIANYIDQFLTSRLQSIPV, MLTQYRQAQEDILRGRVKVRVVGQDKGGGVVMGEGVEIAPGARIEGPVLIGGACHIATGAVVGPFTVLGPYTRVEEGATVRRSVLWDNVYTGEGANVRGAVVCSRASLQRRVQVYEGAVIGDGTQVDAGAEVRPEVKVWPEKTLEHHHHHH
